In patent US20260001928A1 (CORTERIA PHARMACEUTICALS, priority 2022, published 2026):
*1 amine or outer side, *2 acyl side, *3 side chain or, on linkers, in order; H or OH if unused. Where no end group is shown, it is not given here. Side-chain parts run from the residue outwards. [ ]: non-standard residue; d: D form. The star is where a group is joined. C18 diacid = O=C(O)CCCCCCCCCCCCCCCCC(=O)*; C16 diacid = O=C(O)CCCCCCCCCCCCCCC(=O)*; γGlu = O=C(O)[C@H](CCC(=O)[*:2])N[*:1]; NMeI = CC[C@H](C)[C@H](NC)C(=O)O; Pentanoyl = CCCCC(=O)*; AEEA = NCCOCCOCC(=O)O; Aib = CC(C)(N)C(=O)O

T1: CRF1R receptor (UniProt P34998 24-415, limits assumed)
T1 sequence (looked up): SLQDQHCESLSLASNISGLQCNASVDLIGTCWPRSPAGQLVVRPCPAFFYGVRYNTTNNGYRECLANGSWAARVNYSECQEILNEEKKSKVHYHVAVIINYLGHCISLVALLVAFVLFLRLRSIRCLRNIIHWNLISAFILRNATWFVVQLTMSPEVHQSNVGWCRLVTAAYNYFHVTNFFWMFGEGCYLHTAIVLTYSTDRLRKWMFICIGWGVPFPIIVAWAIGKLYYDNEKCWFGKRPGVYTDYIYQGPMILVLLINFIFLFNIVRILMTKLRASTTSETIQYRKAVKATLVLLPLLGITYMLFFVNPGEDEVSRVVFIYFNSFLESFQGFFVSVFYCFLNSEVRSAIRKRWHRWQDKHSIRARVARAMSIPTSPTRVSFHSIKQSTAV

B1: SEQ ID NO 64 (peptide)
peptide: [NMeI]VLSLD[dV]PIKLK([γGlu-C16 diacid])KILLEQEKQKKQREQAETN[Aib]QILAQV-NH2
modifications: N-terminus assumed
SMILES: CC[C@H](C)[C@H](NC)C(=O)N[C@H](C(=O)N[C@@H](CC(C)C)C(=O)N[C@@H](CO)C(=O)N[C@@H](CC(C)C)C(=O)N[C@@H](CC(=O)O)C(=O)N[C@@H](C(=O)N1CCC[C@H]1C(=O)N[C@H](C(=O)N[C@@H](CCCCN)C(=O)N[C@@H](CC(C)C)C(=O)N[C@@H](CCCCNC(=O)CC[C@H](NC(=O)CCCCCCCCCCCCCCC(=O)O)C(=O)O)C(=O)N[C@@H](CCCCN)C(=O)N[C@H](C(=O)N[C@@H](CC(C)C)C(=O)N[C@@H](CC(C)C)C(=O)N[C@@H](CCC(=O)O)C(=O)N[C@@H](CCC(N)=O)C(=O)N[C@@H](CCC(=O)O)C(=O)N[C@@H](CCCCN)C(=O)N[C@@H](CCC(N)=O)C(=O)N[C@@H](CCCCN)C(=O)N[C@@H](CCCCN)C(=O)N[C@@H](CCC(N)=O)C(=O)N[C@@H](CCCNC(=N)N)C(=O)N[C@@H](CCC(=O)O)C(=O)N[C@@H](CCC(N)=O)C(=O)N[C@@H](C)C(=O)N[C@@H](CCC(=O)O)C(=O)N[C@H](C(=O)N[C@@H](CC(N)=O)C(=O)NC(C)(C)C(=O)N[C@@H](CCC(N)=O)C(=O)N[C@H](C(=O)N[C@@H](CC(C)C)C(=O)N[C@@H](C)C(=O)N[C@@H](CCC(N)=O)C(=O)N[C@H](C(N)=O)C(C)C)[C@@H](C)CC)[C@@H](C)O)[C@@H](C)CC)[C@@H](C)CC)C(C)C)C(C)C
B2: SEQ ID NO 118 (peptide)
peptide: [NMeI]VLSLD[dV]PIKLK([AEEA-AEEA-γGlu-C18 diacid])KILLEQEKQKKQREQAETN[Aib]QILAQV-NH2
modifications: N-terminus assumed
SMILES: CC[C@H](C)[C@H](NC)C(=O)N[C@H](C(=O)N[C@@H](CC(C)C)C(=O)N[C@@H](CO)C(=O)N[C@@H](CC(C)C)C(=O)N[C@@H](CC(=O)O)C(=O)N[C@@H](C(=O)N1CCC[C@H]1C(=O)N[C@H](C(=O)N[C@@H](CCCCN)C(=O)N[C@@H](CC(C)C)C(=O)N[C@@H](CCCCNC(=O)COCCOCCNC(=O)COCCOCCNC(=O)CC[C@H](NC(=O)CCCCCCCCCCCCCCCCC(=O)O)C(=O)O)C(=O)N[C@@H](CCCCN)C(=O)N[C@H](C(=O)N[C@@H](CC(C)C)C(=O)N[C@@H](CC(C)C)C(=O)N[C@@H](CCC(=O)O)C(=O)N[C@@H](CCC(N)=O)C(=O)N[C@@H](CCC(=O)O)C(=O)N[C@@H](CCCCN)C(=O)N[C@@H](CCC(N)=O)C(=O)N[C@@H](CCCCN)C(=O)N[C@@H](CCCCN)C(=O)N[C@@H](CCC(N)=O)C(=O)N[C@@H](CCCNC(=N)N)C(=O)N[C@@H](CCC(=O)O)C(=O)N[C@@H](CCC(N)=O)C(=O)N[C@@H](C)C(=O)N[C@@H](CCC(=O)O)C(=O)N[C@H](C(=O)N[C@@H](CC(N)=O)C(=O)NC(C)(C)C(=O)N[C@@H](CCC(N)=O)C(=O)N[C@H](C(=O)N[C@@H](CC(C)C)C(=O)N[C@@H](C)C(=O)N[C@@H](CCC(N)=O)C(=O)N[C@H](C(N)=O)C(C)C)[C@@H](C)CC)[C@@H](C)O)[C@@H](C)CC)[C@@H](C)CC)C(C)C)C(C)C
B3: SEQ ID NO 80 (peptide)
peptide: Pentanoyl-VLSLD[dV]PIKLK([γGlu-C16 diacid])KILLEQEKQKKQREQAETN[Aib]QILAQV-NH2
SMILES: CCCCC(=O)N[C@H](C(=O)N[C@@H](CC(C)C)C(=O)N[C@@H](CO)C(=O)N[C@@H](CC(C)C)C(=O)N[C@@H](CC(=O)O)C(=O)N[C@@H](C(=O)N1CCC[C@H]1C(=O)N[C@H](C(=O)N[C@@H](CCCCN)C(=O)N[C@@H](CC(C)C)C(=O)N[C@@H](CCCCNC(=O)CC[C@H](NC(=O)CCCCCCCCCCCCCCC(=O)O)C(=O)O)C(=O)N[C@@H](CCCCN)C(=O)N[C@H](C(=O)N[C@@H](CC(C)C)C(=O)N[C@@H](CC(C)C)C(=O)N[C@@H](CCC(=O)O)C(=O)N[C@@H](CCC(N)=O)C(=O)N[C@@H](CCC(=O)O)C(=O)N[C@@H](CCCCN)C(=O)N[C@@H](CCC(N)=O)C(=O)N[C@@H](CCCCN)C(=O)N[C@@H](CCCCN)C(=O)N[C@@H](CCC(N)=O)C(=O)N[C@@H](CCCNC(=N)N)C(=O)N[C@@H](CCC(=O)O)C(=O)N[C@@H](CCC(N)=O)C(=O)N[C@@H](C)C(=O)N[C@@H](CCC(=O)O)C(=O)N[C@H](C(=O)N[C@@H](CC(N)=O)C(=O)NC(C)(C)C(=O)N[C@@H](CCC(N)=O)C(=O)N[C@H](C(=O)N[C@@H](CC(C)C)C(=O)N[C@@H](C)C(=O)N[C@@H](CCC(N)=O)C(=O)N[C@H](C(N)=O)C(C)C)[C@@H](C)CC)[C@@H](C)O)[C@@H](C)CC)[C@@H](C)CC)C(C)C)C(C)C
B4: SEQ ID NO 120 (peptide)
peptide: Pentanoyl-VLSLD[dV]PIKLK([AEEA-AEEA-γGlu-C18 diacid])KILLEQEKQKKQREQAETN[Aib]QILAQV-NH2
SMILES: CCCCC(=O)N[C@H](C(=O)N[C@@H](CC(C)C)C(=O)N[C@@H](CO)C(=O)N[C@@H](CC(C)C)C(=O)N[C@@H](CC(=O)O)C(=O)N[C@@H](C(=O)N1CCC[C@H]1C(=O)N[C@H](C(=O)N[C@@H](CCCCN)C(=O)N[C@@H](CC(C)C)C(=O)N[C@@H](CCCCNC(=O)COCCOCCNC(=O)COCCOCCNC(=O)CC[C@H](NC(=O)CCCCCCCCCCCCCCCCC(=O)O)C(=O)O)C(=O)N[C@@H](CCCCN)C(=O)N[C@H](C(=O)N[C@@H](CC(C)C)C(=O)N[C@@H](CC(C)C)C(=O)N[C@@H](CCC(=O)O)C(=O)N[C@@H](CCC(N)=O)C(=O)N[C@@H](CCC(=O)O)C(=O)N[C@@H](CCCCN)C(=O)N[C@@H](CCC(N)=O)C(=O)N[C@@H](CCCCN)C(=O)N[C@@H](CCCCN)C(=O)N[C@@H](CCC(N)=O)C(=O)N[C@@H](CCCNC(=N)N)C(=O)N[C@@H](CCC(=O)O)C(=O)N[C@@H](CCC(N)=O)C(=O)N[C@@H](C)C(=O)N[C@@H](CCC(=O)O)C(=O)N[C@H](C(=O)N[C@@H](CC(N)=O)C(=O)NC(C)(C)C(=O)N[C@@H](CCC(N)=O)C(=O)N[C@H](C(=O)N[C@@H](CC(C)C)C(=O)N[C@@H](C)C(=O)N[C@@H](CCC(N)=O)C(=O)N[C@H](C(N)=O)C(C)C)[C@@H](C)CC)[C@@H](C)O)[C@@H](C)CC)[C@@H](C)CC)C(C)C)C(C)C

These binders were tested against human corticotropin-releasing factor 2a (CRF2a receptor) (human), Q13324 (assay: cell-based or functional assay).
Sequence of human corticotropin-releasing factor 2a (CRF2a receptor) (human), Q13324 (Q13324 20-411): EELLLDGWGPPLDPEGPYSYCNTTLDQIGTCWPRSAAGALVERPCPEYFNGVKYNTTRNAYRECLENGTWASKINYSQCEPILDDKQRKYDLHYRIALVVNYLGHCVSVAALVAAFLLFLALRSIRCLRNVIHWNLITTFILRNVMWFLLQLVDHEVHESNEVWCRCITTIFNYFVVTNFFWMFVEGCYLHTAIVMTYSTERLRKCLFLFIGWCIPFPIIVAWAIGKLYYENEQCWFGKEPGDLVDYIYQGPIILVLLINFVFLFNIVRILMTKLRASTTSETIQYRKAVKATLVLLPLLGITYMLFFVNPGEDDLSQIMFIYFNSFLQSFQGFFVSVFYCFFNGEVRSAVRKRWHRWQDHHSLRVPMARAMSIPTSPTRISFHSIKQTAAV

| EC50 [nM] (cAMP) | Binder |
| --- | --- |
| 0.19 nM | B1 |
| 0.6 nM | B2 |
| 0.35 nM | B3 |
| 1.33 nM | B4 |

Each binder was assayed against T1, CRF1R receptor (assay: cell-based or functional assay).

| Emax (% I) | Binder |
| --- | --- |
| 4% | B1 |
| 7% | B2 |
| 10% | B3 |
| 3% | B4 |
